No end group written: not given here. *: point of attachment. Biotin = O=C1N[C@H]2[C@H](CS[C@H]2CCCCC(=O)*)N1; linker = not defined here
Columns and labels:
Non-phospho. = target: T1, Non-phospho. (not fully specified; printed as Biotin - linker - GDTSPRHLSNVSSTGSID; reading uncertain); experiment: ELISA: plate coated with 5 µg/ml IgG, 10 nM biotinylated peptide in solution, streptavidin-peroxidase/TMB, absorbance 450 nm
T1 construct: also called non-phosphorylated biotinylated Tau 401-418 peptide
T1 peptide: {Biotin-linker}-GDTSPRHLSNVSSTGSID
Description: FIG. 3. Binding of immobilized IgG antibodies to Tau-derived biotinylated peptides containing pS404 and/or pS409 as measured by ELISA. […] 10 nM of the biotinylated peptides shown in FIG. 3, and 5 μg/ml IgG, were used.
Specificity of the top five clones for phosphoserine 404 and phosphoserine 409 was also assessed by ELISA. In one experiment (FIG. 3), Nunc maxisorp microplates were coated with 5 μg/ml IgG in coating buffer (sodium carbonate pH9.6) for 70 minutes at ambient temperature. Non-specific binding sites were blocked with BBT for a minimum of 2 hours then the plates washed and 10 nM biotinylated peptide in BBT added. After 1.5 hours bound peptide was detected by a 65 minute incubation with peroxidase-conjugated Streptavidin and detection with TMB as described above. […] The peptides synthesized and used in this experiment (which correspond to amino acids 401-418 of full-length Tau) have the following amino acid sequences (Table B): […]

[1] = target: PKA-phosphorylated full-length Tau (Homo sapiens) (UniProt P10636); experiment: SPR Biacore 2000, bivalent IgG1 analyte, ~824 RU PKA-phospho Tau, ligand density 2
[2] = target: PKA-phosphorylated full-length Tau (Homo sapiens) (UniProt P10636); experiment: ELISA: plate coated with 0.1 µg/ml PKA-phosphorylated full-length Tau, IgG titrated 0.06 pM to 1 nM, anti-human Fc-peroxidase/TMB, absorbance 450 nm [panel B]
[3] = target: PKA-phosphorylated full-length Tau (Homo sapiens) (UniProt P10636); experiment: SPR Biacore 2000, bivalent IgG1 analyte, ~153 RU PKA-phospho Tau, ligand density 1
[4] = target: PKA-phosphorylated full-length Tau (Homo sapiens) (UniProt P10636); experiment: ELISA: plate coated with 1 µg/ml PKA-phosphorylated full-length Tau, IgG titrated 0.06 pM to 1 nM, anti-human Fc-peroxidase/TMB, absorbance 450 nm [panel A]

Sequence of PKA-phosphorylated full-length Tau (Homo sapiens) (P10636 other isoform, or with tags, fused parts or gaps limits assumed): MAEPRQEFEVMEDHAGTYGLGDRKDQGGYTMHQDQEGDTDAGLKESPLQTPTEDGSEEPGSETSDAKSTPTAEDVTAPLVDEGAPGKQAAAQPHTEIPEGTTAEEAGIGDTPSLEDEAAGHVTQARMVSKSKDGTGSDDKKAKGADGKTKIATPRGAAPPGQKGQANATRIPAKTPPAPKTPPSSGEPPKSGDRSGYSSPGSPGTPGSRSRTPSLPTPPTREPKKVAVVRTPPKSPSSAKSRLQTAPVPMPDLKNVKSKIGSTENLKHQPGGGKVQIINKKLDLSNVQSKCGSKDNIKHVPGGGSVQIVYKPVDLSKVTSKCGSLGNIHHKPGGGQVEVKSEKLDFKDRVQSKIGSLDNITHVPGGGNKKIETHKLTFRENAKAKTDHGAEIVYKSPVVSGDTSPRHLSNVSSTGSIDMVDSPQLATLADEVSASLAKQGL

- binding result (Non-phospho.): no binding (tested: 10 nM)
- Kd [1]: 0.2 nM
- koff [1]: 0.0003 s⁻¹
- kon [1]: 1.6e+06 M⁻¹ s⁻¹
- EC50 (read off the curve) [2]: 0.02 nM
- Kd [3]: 0.8 nM
- koff [3]: 0.0012 s⁻¹
- kon [3]: 1.6e+06 M⁻¹ s⁻¹
- EC50 (read off the curve) [4]: 0.006 nM
B1: TAM20 IgG1 (antibody, V domains shown)
VH: EVQLVQSGAEVKKPGSSVKVSCKASGYTFTDYYMNWVRQAPGQGLEWIGDINPNRGGTTYNQKFKGRVTITVDKSTSTAYMELSSLRSEDTAVYYCASYYAVGYWGQGTTVTVSS
VL: DIVMTQTPLSLPVTPGEPASISCRSSQSLVHSHGRTYLHWYLQKPGQSPQLLIYKVSNRFFGVPDRFSGSGSGTDFTLKISRVEAEDVGVYFCSQTRHFPYTFGGGTKVEIKR

Source: patent US20160024193A1 (AC IMMUNE S A, published 2016)
